According to PMC5101896, “Enhanced cellular uptake of lactosomes using cell-penetrating peptides” (Science and Technology of Advanced Materials, 2016):
No end group written: not given here.

Assays:
[1] = Zeta potential by laser Doppler electrophoresis; format: physicochemical; settings: Zetasizer Nano ZSP, n = 3, mean ± standard deviation
Description: (§1) A chloroform solution containing the (PSar25)3-block-PLLA35 (100 nmol, […]) with 4 mol% of TPP (Wako Pure Chemical, Osaka, Japan), 2 mol% of ICG-PLLA34, and 10 mol% maleimide-PSar56-PLLA30 was evaporated under reduced pressure to remove the solvent, forming a thin film on the surface of the glass test tube. Saline (Otsuka normal saline, Otsuka Pharmaceutical Factory, Tokushima, Japan) (50 μl) was added to the test tube, which was then placed at room temperature for 5 min. Then, 50 μl of the saline solution containing 50 nmol CPP and 10 nmol Tris(2-carboxyethyl)phosphine hydrochloride (Nacalai Tesque, Kyoto, Japan) was added to the solution (50 μl) in the test tube and stirred for 12 h at room temperature. In this procedure, lactosome formation and TPP encapsulation by the lactosome were expected. At the same time, maleimide-PSar56-PLLA30 in the lactosome is expected to react with CPP, which contains a cysteine residue at its C-terminus (Table 1). This lactosome mixture was diluted with 400 μl of saline, and passed through a 0.1 μm syringe filter (Membrane Solutions, Dallas, USA) to remove large aggregates. Low molecular weight molecules were excluded from the mixture using Amicon Ultra-0.5 (MWCO 50 kDa, Merck Millipore, Darmstadt, Germany). To analyze concentrations of CPP, TPP and ICG-PLLA34, absorption spectra of the lactosome complexes were measured using a BioSpec spectrometer (Shimadzu, Kyoto, Japan). The particle size, size distribution, polydispersity index (PDI), and zeta potential were measured by Zetasizer Nano ZSP (Malvern Instruments, Malvern, UK).
(§2) The particle sizes of lactosome complexes were measured by dynamic light scattering (DLS). The average particle sizes of the CPP-modified lactosomes were 36–49 nm, which were slightly larger than the unmodified lactosomes (34.2 nm) (Table 2, Figure 1(b)). The zeta potential value of CPP-modified lactosomes (e.g. Pep1-modified lactosome: 1.7 mV, EB1-modified lactosome: 1.6 mV) was higher than that of the unmodified lactosomes (–4.6 mV) (Table 2). The increase in the zeta potential seems to be due to positively charged CPPs.

[2] = Particle size and polydispersity by dynamic light scattering (DLS); format: physicochemical; settings: Zetasizer Nano ZSP, n = 3, mean ± standard deviation; for Diameter: lactosomes in saline
Description: as §1, §2

CHO cells = test: Cellular uptake of ICG-labeled CPP-modified lactosomes; format: cell-based, Chinese hamster; settings: for Cellular uptake level (in words): 10 nmol lactosome complexes, ICG fluorescence intensity divided by cell viability; for Cellular localization (co-localization with LysoTracker Green): 2 μM LysoTracker Green, further 3 h incubation; for ICG fluorescence in cells by fluorescence microscopy, compared to lactosomes without CPP: after washing
Description: CHO cells were cultured at 37°C under 5% CO2 in Ham’s F12 medium (Wako Pure Chemical) supplemented with 10% fetal bovine serum (FBS, Nichirei Biosciences, Tokyo Japan), 100 units ml^–1 penicillin (Gibco; Thermo Fisher Scientific, Waltham, Massachusetts, USA), and 100 μg ml^–1 streptomycin (Gibco; Thermo Fisher Scientific). The cells were seeded at a density of 2 × 10^4 cells/well in the 96-well plate, and incubated at 37°C under 5% CO2 overnight. The cells were then incubated at 37°C for 2 h with ICG-labeled lactosomes modified with CPPs (Tat, PTD4, DPV3, MPG^ΔNLS, R9MPG, Pep1, or EB1) dissolved in 200 μl T buffer. The lactosome solution was exchanged for Ham’s F12 medium before the fluorescence imaging. The cellular fluorescence images were obtained by fluorescence microscopy using an Olympus IX71 microscope (Olympus, Tokyo, Japan) with a 40 × objective lens and a U-DM-CY7–3 mirror unit.
LysoTracker Green (Thermo Fisher Scientific) was used for investigating cellular localization of CPP-modified lactosomes. After incubation of the cells with CPP-modified ICG-labeled lactosomes, the lactosome solution was exchanged with Ham’s F12 medium containing 2 μM LysoTracker Green. The cells were further incubated for 3 h. Then, the cell medium was replaced with Ham’s F12 medium, and fluorescence images were obtained.
To evaluate the cellular uptake of the lactosome complexes, the ICG fluorescence images were obtained using an IVIS spectrum system (Xenogen, Hopkinton, Massachusetts USA) with a filter set specific for ICG (excitation at 745 nm and emission at 840 ± 10 nm). The ICG fluorescence intensity was estimated from the photon counts of the images. Then, the cell medium was replaced with solution containing 10 μl of Cell Counting Kit-8 solution (Dojindo, Kumamoto, Japan) and 90 μl of Ham’s F12 medium, and the cells were incubated for an additional 1.5 h. After incubation, the cell viability was measured by absorbance at 450 nm using the microplate reader SunriseR (Tecan Japan, Kanagawa, Japan). Lactosome uptake levels were calculated by dividing ICG fluorescence intensity by cell viability of each well.

NCI-N87 cells = test: Photoinduced cell killing (PDT treatment) with CPP/TPP-lactosomes, Cell Counting Kit-8; format: cell-based, human; settings: 1.5 h at 37°C in T buffer, irradiation 340–390 nm, 200 mW cm^–2, 100 s, then 24 h culture, n = 3
Description: NCI-N87 cells were cultured at 37°C under 5% CO2 in RPMI1640 medium (Wako Pure Chemical) supplemented with 10% FBS, 100 units ml^–1 penicillin, and 100 μg ml^–1 streptomycin. NCI-N87 cells were seeded at a density of 4 × 10^4 cells/well in a 96-well plate, and incubated at 37°C for two days before treatment with the lactosome complex. CHO cells were cultured and seeded as described above. The effect of treatment with the TPP-loaded lactosomes and light on cell viability, which is related to PDT efficacy, was evaluated as follows: TPP-loaded lactosomes modified with CPPs (Pep1 or EB1) dissolved in 200 μl of T buffer (20 mM HEPES-KOH (pH 7.4), 115 mM NaCl, 5.4 mM KCl, 1.8 mM CaCl2, 0.8 mM MgCl2, and 13.8 mM glucose) were added to NCI-N87 cells (70% confluent) in the 96-well plate. The cells were incubated at 37°C for 1.5 h. After the lactosome solution was exchanged for T buffer, the cells were irradiated at 340–390 nm at 200 mW cm^–2 for 100 s. After irradiation, the cells were further incubated for 24 h at 37°C under 5% CO2 in the medium. Then, the cell medium was exchanged for the solution containing 10 μl of Cell Counting Kit-8 solution and 90 μl of RPMI1640 medium, and the cells were incubated at 37°C for 2 h. The cell viability was measured by the absorbance at 450 nm using a microplate reader SunriseR. […]

PANC-1 tumor = test: In vivo ICG fluorescence imaging of tumor-bearing mice; design: species or system mice (BALB/c nu/nu); settings: tail vein injection, imaging 24 h after injection, IVIS; three mice
Description: (§3) Six-week-old male nude mice (BALB/c nu/nu) were purchased from Charles River. Five weeks before the imaging, PANC-1 cells (1 × 10^7) suspended in 100 μl of 50% Matrigel Matrix (Corning Life Sciences, Corning, New York USA) in phosphate buffered saline was subcutaneously inoculated into the front left leg of mice. Two weeks after the first transplantation, NCI-N87 cells (4 × 10^6) were suspended in the Matrigel solution and subcutaneously inoculated into the front right leg of mice. Three weeks after the second transplantation, CPP/TPP/ICG-lactosomes were injected into the tumor-bearing mouse via the tail vein. After 24 h, ICG fluorescence images were taken using the IVIS spectrum system (excitation at 745 nm and emission at 840 ± 10 nm, field of view = 12.5 cm (width and height), f/stop = 2, binning = 4, and exposure time at 3 s). During the imaging process, the mice were anesthetized using 3.0% isoflurane gas in oxygen flow (0.5 l min^–1).

NCI-N87 tumor = test: as above; design: species or system mice (BALB/c nu/nu); settings: tail vein injection, imaging 24 h after injection, IVIS; three mice
Description: as §3

| Substance | Zeta potential [1] | Diameter [2] | PDI (polydispersity index) [2] | also measured |
| --- | --- | --- | --- | --- |
| GALFLGFLGAAGSTMGAWSQPKSKRKV-C [MPG^ΔNLS, A3B-type lactosome modified with the CPP MPG^ΔNLS via maleimide-PSar56-PLLA30] | −2.9±0.6 mV | 49.1±0.5 nm | 0.29±0.02 |  |
| KETWWETWWTEWSQPKKKRKV-C [Pep1, A3B-type lactosome modified with the CPP Pep1 via maleimide-PSar56-PLLA30] | 1.7±0.1 mV | 37.7±0.6 nm | 0.13±0.02 | Cellular uptake level relative to the EB1-modified lactosomes (CHO cells; 10 nmol lactosome complexes in T buffer, 2 h, 37°C, ICG fluorescence intensity (IVIS, ex 745 nm, em 840 nm) divided by cell viability (Cell Counting Kit-8), mean, n = 4): 0.62; Cellular uptake level (in words) (CHO cells; 2 h, 37°C): highly internalized; Cellular localization (co-localization with LysoTracker Green) (CHO cells): localized mainly in acidic organelles, including endosomes and lysosomes; ICG fluorescence in cells by fluorescence microscopy, compared to lactosomes without CPP (CHO cells; 2 h, 37°C): significantly strong ICG fluorescence |
| KETWWETWWTEWSQPKKKRKV-C [Pep1/TPP-lactosomes, Pep1-modified lactosome loaded with the photosensitizer TPP] |  |  |  | Killing of NCI-N87 cells compared to the experiment without CPP/TPP-lactosomes (NCI-N87 cells): 67% |
| LIRLWSHLIHIWFQNRRLKWKKK-C (LIRLWSHLIHIWFQNRRLKWKKKC; also: C-terminal Cys linked via maleimide to PSar56-PLLA30 (lactosome)) [EB1, A3B-type lactosome modified with the CPP EB1 via maleimide-PSar56-PLLA30] | 1.6±0.3 mV | 38.3±0.2 nm | 0.12±0.01 | Cellular uptake level (in words) (CHO cells; 2 h, 37°C): most abundantly internalized; Cellular localization (co-localization with LysoTracker Green) (CHO cells): localized mainly in acidic organelles, including endosomes and lysosomes; ICG fluorescence in cells by fluorescence microscopy, compared to lactosomes without CPP (CHO cells; 2 h, 37°C): significantly strong ICG fluorescence |
| LIRLWSHLIHIWFQNRRLKWKKK-C [EB1/TPP-lactosomes, EB1-modified lactosome loaded with the photosensitizer TPP] |  |  |  | Killing of NCI-N87 cells compared to the experiment without CPP/TPP-lactosomes (NCI-N87 cells): 89% |
| LIRLWSHLIHIWFQNRRLKWKKK-C [EB1/TPP/ICG-lactosomes, lactosome complex containing EB1, TPP, and ICG] |  |  |  | Accumulation in PANC-1 tumor (ICG fluorescence) (PANC-1 tumor): only slight ICG fluorescence was detected; Accumulation in NCI-N87 tumor (ICG fluorescence) (NCI-N87 tumor): accumulated in NCI-N87 tumors and liver |
| RKKRRRESRKKRRRES-C (RKKRRRESRKKRRRESC; also: C-terminal Cys linked via maleimide to PSar56-PLLA30 (lactosome)) [DPV3, A3B-type lactosome modified with the CPP DPV3 via maleimide-PSar56-PLLA30] | −3.7±0.3 mV | 37.0±0.4 nm | 0.12±0.01 |  |
| RRRRRRRRRGALFLAFLAAALSLMG-C (RRRRRRRRRGALFLAFLAAALSLMGC; also: C-terminal Cys linked via maleimide to PSar56-PLLA30 (lactosome)) [R9MPG, A3B-type lactosome modified with the CPP R9MPG via maleimide-PSar56-PLLA30] | −2.7±0.9 mV | 43.9±1.5 nm | 0.22±0.01 |  |
| YARAAARQARA-C [PTD4, A3B-type lactosome modified with the CPP PTD4 via maleimide-PSar56-PLLA30] | −4.2±0.3 mV | 37.0±0.4 nm | 0.14±0.02 |  |
| YGRKKRRQRRR-C [Tat, A3B-type lactosome modified with the CPP Tat via maleimide-PSar56-PLLA30] | −3.6±0.1 mV | 36.2±0.3 nm | 0.10±0.01 |  |
